This note sets out measurements from patent US20050049403A1 (CAMBRIDGE ANTIBODY TECHNOLOGY, published 2005).

Residue numbers refer to the chain shown, from its start.

One test has as its target T1, recombinant human TGFβ2 (human, UniProt P61812 303-414).
T1 construct: mature; also called TGFbeta2; rhTGFβ2
T1 sequence (looked up): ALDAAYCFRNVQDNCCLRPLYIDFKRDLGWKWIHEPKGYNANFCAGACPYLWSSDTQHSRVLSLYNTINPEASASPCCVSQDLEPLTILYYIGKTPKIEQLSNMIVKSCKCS
Briefly: BIAcore 2000, antigen immobilised, antibody as analyte. On the procedure:
The immobilisation of ligand is automated by the BIACore 2000 machine, and all steps are carried out in the autosampler or in the flowcell, on the dextran surface of the chip. The buffer used throughout the immobilisation procedure, and the analysis of samples is Hepes-buffered saline (HBS) with a surfactant (Pharmacia Biosensor). The chips (Pharmacia, CM5), have dextran coating on a thin layer of gold. NHS at 100 mM and EDC at 400 mM are mixed by the autosampler, and then a fixed volume is injected over the flowcell surface. This is followed by an injection of antigen in a suitable buffer. In the case of TGFβ, a surface of the correct density was given by using 25-30 μg/ml solution of TGFβ2 (AMS) OR TGFβ3 (R & D systems) in 10 mM acetate. After injection of the ligand, the chip is blocked using 1M ethanolamine. The total amount of TGFβ bound was assessed from the total increase in resonance units over this period.
To determine the kinetic parameters, a series of dilutions of the antibody samples was made in HBS from about 500 μg/ml down to less than 1 μg/ml, usually through doubling dilutions. After the antibody has been injected over the antigen surface, the surface is washed with HBS, then regenerated by stripping off the bound antibody with a pulse of 100 mM HCl. At the higher concentrations of antibody the antigen on the chip surface is saturated, and the off rate is determined on washing with buffer in the dissociation phase. For determination of the on-rate, lower concentrations of antibody are used, giving a linear binding phase in the sensorgram, allowing kₒₙ determination.
6B1 IgG4 was purified from the GS/NS0 cell line of Example 10 as in Example 2. 6B1 single chain Fv was expressed intracellularly in E. coli, refolded in vitro (using the methodology of WO94/18227), and purified to give a homogeneous product. The values of kₒₙ and koff were determined for 6B1 IgG4 for binding to both TGFβ2 and TGFβ3, and for the single-chain Fv 6B1 for binding to TGFβ2. The dissociation constant was calculated by dividing koff by kₒₙ.
On the technique in general: In SPR one partner is held on a chip, and binding of the other changes the refractive index at the surface.

Test [1] addresses T2, phage peptide display Clone 1 (RQLSLQQRMH).
T2 peptide: RQLSLQQRMH
Briefly: phage ELISA on coated 6B1 IgG4 after four rounds of panning. As to the method:
(§1) Purified 6B1 IgG4 antibody at 10 μg/ml in 4 ml of PBS was coated onto a plastic tube (Nunc; maxisorp) by incubating overnight at 4° C. After washing and blocking with MPBS (see Example 1) an aliquot of the peptide library containing 5×10¹³ phage in 4 ml 3% MPBS was added to the tube and incubated at room temperature for 1.5 hours. The tube was washed 10 times with PBST(0.1%), then 10 times with PBS. Bound phage particles were eluted from the tube by adding 4 ml of 100 mM triethylamine and incubating the tube stationary for 10 minutes at room temperature. The eluted phage were then added to a tube containing 2 ml 1M-Tris.HCl (pH7.4) and 10 ml 2YT broth. The phage were then added to 20ml of logarithmically growing E. coli TG1 cells and grown for 1 hour shaking at 100 rpm at 37° C. The infected cells were then plated on 2YT agar medium with 15 μg/ml tetracycline in 243 mm×243 mm dishes (Nunc). Plates were incubated at 30° C. for 18 hours. Colonies were scraped off the plates into 10 ml 2TY broth containing 15% (v/v) glycerol for storage at −70° C.
(§2) These clones were screened for clones that bound specifically to the antibody 6B1 in ELISA. Cells from the master plates were used to inoculate 96 well tissue culture plates containing 100 μl 2YT broth (containing 15 μg/ml tetracycline) per well and grown overnight with gentle shaking at 100 rpm at 30° C. The plates were then centrifuged at 2000 rpm. The 100 μl phage supernatants from each well were recovered and each was mixed with 100 μl of 4% skimmed milk powder in 2×PBS. 100 μl of each of these was then assayed by phage ELISA. Purified 6B1 IgG4 antibody at 10 μg/ml in PBS was coated onto flexible microtitre plates by incubating overnight at 4° C. Control plates coated with an irrelevant IgG4 antibody at 10 μg/ml were also prepared. The ELISAs were performed as described in Example 1, and visualised with the chromagenic substrate pNPP (Sigma).
Background: In an ELISA, binding on a coated surface is turned into a signal by an enzyme label.

Test [2] has as its target T3, phage peptide display Clone 2 (DPMDMVLKLC).
T3 peptide: DPMDMVLKLC
The description is as above. As to the method:
as §1, §2

The target of test [3] is T4, phage peptide display Clone 3 (WSEFMRQSSL).
T4 peptide: WSEFMRQSSL
Described as above. On the procedure: as §1, §2

Test [4] concerns the target T5, phage peptide display clone VESTSLQFRG (fourth clone, printed as Clone 3).
T5 construct: also called Clone 3 (second of that label)
T5 peptide: VESTSLQFRG
The description is as above. On the procedure: as §1, §2

Test [5] concerns the target irrelevant peptide …. Briefly: BIACore, peptide at 745 µM (1 mg/ml) over immobilised 6B1 IgG4 (5000RU).
The target of test [6] is T6, TGFβ2 in rat tissue sections (rat, UniProt Q07257 331-442, limits assumed).
T6 construct: also called rat TGFβ2
T6 sequence (looked up): T1 sequence (looked up) with S59T, R60K, K94N
Briefly: immunohistochemistry, 6B1 IgG4 at 500 ng/ml on pronase E treated rat kidney sections. As to the method:
Paraffin embedded rat tissues were de-waxed and rehydrated through an alcohol series. The sections were then treated with 0.1% pronase E for exactly 8 min and then washed in water. TGFβ2 was detected in the sections using 6B1 IgG4 at 500 ng/ml following the protocol provided with a Vectastain ABC (avidin-biotin-complex) kit from Vector Laboratories. On kidney sections, bound antibody was located with alkaline phosphatase and peroxidase was used on rat brain tissues.

B1: 6B1 IgG4 (antibody, V domains shown)
VH: EVQLVESGGGVVQPGRSLRLSCAASGFTFSSYGMHWVRQAPGKGLEWVAVIWYDGSNKYYADSVKGRFTISRDNSKNTLYLQMDSLRAEDTAVYYCGRTLESSLWGQGTLVTVSS
VL: SSELTQDPAVSVALGQTVRITCQGDSLRSYYASWYQQKPGQAPVLVIYGKNNRPSGIPDRFSGSSSGNTASLTITGAQAEDEADYYCNSRDSSSTHRGVFGGGTKLTVLG
notes: Whole antibody: human gamma 4 and human lambda constant regions; FITC-labelled in the human tissue study; also called antibody 6B1
Broadly, the koff is the first-order rate constant of dissociation. Usually kon stands for a measure of how fast the partners come together. For B1, the koff in the test with recombinant human TGFβ2 amounted to 0.000336 s⁻¹. Besides, in the test with recombinant human TGFβ2, the kon worked out at 384000 M⁻¹ s⁻¹. Moreover, the binding result in test [1], in test [2], in test [3], in test [4] and in test [6] was “binds” throughout. In test [5], the amount of binding to 6B1 IgG4 surface, RU was determined as 60.9 RU.
